Measured values published in US20140248641A1, “CLONED GLUCAGON-LIKE PEPTIDE-2 RECEPTORS” (NPS PHARMACEUTICALS, INC., priority 1997, published 2014).
Numbering of substitutions follows the chain as printed.

Columns and labels:
Assay type in all cases: cell-based
[1] = target: T1, Rat clone 587 GLP-2 receptor (Rattus norvegicus, UniProt Q9Z0W0); test: cAMP functional assay in transfected COS-1 cells, rat GLP-2 receptor
T1 construct: one which primed starting 4 bp upstream of the initiation codon and another which primed starting 8 bp downstream of the stop codon; expressed in transfected cells; host or cells: COS-1
T1 sequence (Q9Z0W0 1-550): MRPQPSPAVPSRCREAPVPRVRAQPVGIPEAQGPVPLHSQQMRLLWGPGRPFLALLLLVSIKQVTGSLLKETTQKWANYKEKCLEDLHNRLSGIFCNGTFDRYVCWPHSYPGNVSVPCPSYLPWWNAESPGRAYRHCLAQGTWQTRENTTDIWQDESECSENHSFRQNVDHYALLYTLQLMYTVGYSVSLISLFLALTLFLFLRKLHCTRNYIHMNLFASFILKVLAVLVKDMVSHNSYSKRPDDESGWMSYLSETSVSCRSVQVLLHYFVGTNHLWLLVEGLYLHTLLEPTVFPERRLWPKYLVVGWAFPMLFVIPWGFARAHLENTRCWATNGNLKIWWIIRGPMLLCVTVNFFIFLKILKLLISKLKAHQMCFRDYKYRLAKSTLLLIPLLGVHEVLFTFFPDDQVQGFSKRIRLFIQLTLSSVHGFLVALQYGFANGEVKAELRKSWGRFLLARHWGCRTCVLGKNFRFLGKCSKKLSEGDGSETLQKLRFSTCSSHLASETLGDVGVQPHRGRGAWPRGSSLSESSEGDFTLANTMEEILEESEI
Description: (§1) Cos-1 cells were transfected as described in Analytical Biochemistry, 218:460-463(1994) with Rat clone 587 GLP-2 receptor, cloned human GLP-2 receptor (pC3/HuGL2R-2), or cloned residue 85 variant human GLP-2 receptor (pC3.1/HuGL2R-MH4), pcDNA3. Rat GLP-1 (7-36) amide was used as a control peptide. Solutions used were as follows:
(§2) RSC in RPMI 1640 (49 ml RPMI+1 ml FCS+5)0 ulchloroquine, 100 mM); DEAE/RSC Solution: 18.4 ml RSC+1.6 ml DEAE/Dextran (10 mg/ml).
(§3) The assay procedure entailed the following: […]
The functional assay was performed as follows: cAMP content for each extract was determined in duplicate by EIA (Enzyme ImmunoAssay) using the Amersham Biotrak cAMP EIA Kit (Amersham 225).

[2] = target: T2, cloned human GLP-2 receptor (pC3/HuGL2R-2) (Homo sapiens, UniProt O95838); test: cAMP functional assay in transfected COS-1 cells, human GLP-2 receptor; conditions: FIG. 8
T2 construct: expressed in transfected cells; host or cells: COS-1
T2 sequence (O95838 1-553): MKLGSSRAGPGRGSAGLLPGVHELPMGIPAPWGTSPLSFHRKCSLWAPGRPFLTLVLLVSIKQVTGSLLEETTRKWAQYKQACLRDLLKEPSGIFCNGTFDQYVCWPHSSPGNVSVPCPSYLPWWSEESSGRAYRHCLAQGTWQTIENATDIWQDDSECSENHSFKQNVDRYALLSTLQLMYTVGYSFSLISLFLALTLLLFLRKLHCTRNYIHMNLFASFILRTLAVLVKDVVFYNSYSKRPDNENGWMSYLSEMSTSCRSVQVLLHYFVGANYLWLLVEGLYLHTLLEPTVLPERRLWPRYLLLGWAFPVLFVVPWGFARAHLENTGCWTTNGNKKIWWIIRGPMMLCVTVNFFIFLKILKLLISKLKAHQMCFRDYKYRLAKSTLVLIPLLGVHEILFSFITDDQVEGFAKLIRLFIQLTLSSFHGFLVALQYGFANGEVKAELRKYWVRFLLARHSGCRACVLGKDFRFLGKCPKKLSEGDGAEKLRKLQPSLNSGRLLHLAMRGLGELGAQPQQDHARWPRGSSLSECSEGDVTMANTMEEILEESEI
Description: as §1, §2, §3
(§4) The functional assay was performed as follows: cAMP content for each extract was determined in duplicate by EIA (Enzyme ImmunoAssay) using the Amersham Biotrak cAMP EIA Kit (Amersham 225). […]

[3] = target: T3, cloned residue 85 variant human GLP-2 receptor (Homo sapiens, UniProt O95838, R85E); test: cAMP functional assay in transfected COS-1 cells, residue 85 variant human GLP-2 receptor; conditions: hybrid clone pc3.1/HuGL2R/MH6 with 2 bp GA replacement (Glu85 variant)
T3 construct: Myc-His (from vector pcDNA3.1(-)/Myc-His A) (C); expressed in transfected cells; host or cells: COS-1
T3 sequence (O95838 1-553 R85E): T2 sequence (O95838 1-553) with R85E
Description: Rat GLP-1 (7-36) amide was used as a control peptide. Solutions used were as follows:
as §2
The assay procedure entailed the following:
a) […] of either rat clone 587 GLP-2 receptor, or cloned human GLP-2 receptor, or cloned residue 85 variant human GLP-2 receptor was added (as plasmid pcDNA3) to a 50 ml tube containing six mls. of RSC and incubated at 37° C. b) Six ml of DEAE/RSC solution was added to each tube and incubated at 37° C. for 2 min. c) 1.5 ml of COS-1 cell suspension (5.5 millions cells) was added to each tube and incubated for 1 hr 45 min at 37° C. d) Following incubation, the sample was spun for 5 minutes at low speed, washed with DMEM/F12+10% FBS twice, and the pellet resuspended in 12.5 ml DMEM/F12+10% FBS media. e) One ml of cell suspension (step d) was added to each well of 6 well plates coated with poly-D-lysine (from Collaborative Biomedical), containing 3 ml of media (0.45 million cells/well). f) Plates were incubated at 37° C. for 3 days.
Media was prepared fresh on day of use. […]
as §4

[4] = tested on: HHT13 clones (human GLP-2R cDNA with frame-shift mutation); test: cAMP functional assay in COS cells transfected with HHT13 clones; conditions: COS cells transfected with pHHT13-1, pHHT13-2, pHHT13-3
Description: Transfections were carried out with each clone, using the rat GLP-2R, 587 clone as a positive control for cAMP response to GLP-2 peptide. Methods for transfection, cell culture and cAMP assay were identical to those described for the functional assay of rat, 587 clone.

cAMP response to GLP-2 peptide ([1]; COS cells transfected with rat GLP-2R 587 clone (positive control), cAMP EIA): good cAMP response | selectivity of receptor for GLP-2 over GLP-1 (cAMP) ([1]; cloned rat receptor, peptides at 1, 3, 10 and 30 nM, 30 min, FIG. 3): GLP-2 selectivity | cAMP production in response to GLP-2 treatment ([2]; COS cells transfected with pc3/HuGL2R-2): cAMP production | selectivity of receptor for GLP-2 over GLP-1 (cAMP) ([2]; cloned human receptor, peptides at 1, 3, 10 and 30 nM, 30 min): GLP-2 selectivity | cAMP response to GLP-2 treatment [3]: cAMP response
Substance: Glucagon-like peptide-2 [GLP-2]
cAMP response to GLP-2 peptide [4]: none of the HHT13 clones gave any cAMP response
